# Laboratory results reported in paper PMC8295233 (Immunobiology, 2021).
# No end group written: not given here.
# B1: SPF single-chain fused construct (ERAP1_R with FKARKF fused to its C-terminal end), His6-tag removed (domain or fragment, human)
# chain: GFPLITITVRGRNVHMKQEHYMKGSDGAPDTGYLWHVPLTFITSKSDMVHRFLLKTKTDVLILPEEVEWIKFNVGMNGYYIVHYEDDGWDSLTGLLKGTHTAVSSNDRASLINNAFQLVSIGKLSIEKALDLSLYLKHETEIMPVFQGLNELIPMYKLMEKRDMNEVETQFKAFLIRLLRDLIDKQTWTDEGSVSERMLRSQLLLLACVHNYQPCVQRAEGYFRKWKESNGNLSLPVDVTLAVFAVGAQSTEGWDFLYSKYQFSLSSTEKSQIEFALCRTQNKEKLQWLLDESFKGDKIKTQEFPQILTLIGRNPVGYPLAWQFLRKNWNKLVQKFELGSSSIAHMVMGTTNQFSTRTRLEEVKGFFSSLKENGSQLRCVQQTIETIEENIGWMDKNFDKIRVWLQSEKLERMFKARKF
# B2: LPF single-chain fused construct (ERAP1_R with AAAAFKARKF fused to its C-terminal end), His6-tag removed (domain or fragment, human)
# chain: GFPLITITVRGRNVHMKQEHYMKGSDGAPDTGYLWHVPLTFITSKSDMVHRFLLKTKTDVLILPEEVEWIKFNVGMNGYYIVHYEDDGWDSLTGLLKGTHTAVSSNDRASLINNAFQLVSIGKLSIEKALDLSLYLKHETEIMPVFQGLNELIPMYKLMEKRDMNEVETQFKAFLIRLLRDLIDKQTWTDEGSVSERMLRSQLLLLACVHNYQPCVQRAEGYFRKWKESNGNLSLPVDVTLAVFAVGAQSTEGWDFLYSKYQFSLSSTEKSQIEFALCRTQNKEKLQWLLDESFKGDKIKTQEFPQILTLIGRNPVGYPLAWQFLRKNWNKLVQKFELGSSSIAHMVMGTTNQFSTRTRLEEVKGFFSSLKENGSQLRCVQQTIETIEENIGWMDKNFDKIRVWLQSEKLERMAAAAFKARKF
# Legend:
# ERAP1_R = ERAP1_R (Homo sapiens, UniProt Q9NZ08); assay: SPR binding analysis of peptide analytes to immobilized ERAP1_R; settings: pH 6.2, read-out: ka
# [1] = target: ERAP1 regulatory domain with a C-terminal His6-tag (human, UniProt Q9NZ08 529-941); assay: SPR
# [2] = target: ERAP1 regulatory domain, the domain part of the SPF and LPF fused constructs (human, UniProt Q9NZ08 529-941); assay: crystal structure
molecule,measurement,setting,value
"LVAFKARKF [Free Peptide (LVAFKARKF), LVAFKARKF]",kon,ERAP1_R,734 M⁻¹ s⁻¹
B1,Kd,[1],32 µM
same,koff,[1],0.112 s⁻¹
same,kon,[1],3500 M⁻¹ s⁻¹
"FKARKF [SPF peptide (short peptide with Phe anchor), the peptide part of the SPF fused construct]",binding result,[2],binds
"AAAAFKARKF [LPF peptide (long peptide with Phe anchor), the peptide part of the LPF fused construct]",binding result,[2],binds
B2,Kd,[1],21.3 µM
same,koff,[1],0.091 s⁻¹
same,kon,[1],4270 M⁻¹ s⁻¹
LVAFKARKF [free peptide LVAFKARKF (optimized ERAP1 substrate)],Kd,[1],19.8 µM
same,koff,[1],0.0145 s⁻¹
